In the supplement of paper PMC11208486:

How the values were obtained:
[1] = specific initial activity, cyclohex-2-enone reduction (U mg-1); higher = more active
Protocol: (§1)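 Purified His-tagged ene reductases in 50 mM sodium phosphate pH 7.4 with 0-30% (v/v) organic co-solvent. Melting temperature was measured by the ThermoFMN assay (FMN fluorescence, 20-90 °C at 1 °C/min, inflection point, triplicate). Specific initial activity was measured with 10 mM cyclohex-2-enone and 0.2 mM NAD(P)H (NADH for LacER) as A340 depletion, at room temperature (DMSO, 2-propanol, n-propanol) or 25 °C (EtOH, MeOH), in triplicate. The TsOYE Tm is above the 90 °C measurement range.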

[2] = melting temperature (ThermoFMN); higher = more thermostable
Protocol: as §1, with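 “reductases (1 mg/ml)” for “reductases”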

MARKLFTPITIKDMTLKNRIVMSPMCMYSSHEKDGKLTPFHMAHYISRAIGQVGLIIVEASAVNPQGRITDQDLGIWSDEHIEGFAKLTEQVKEQGSKIGIQLAHAGRKAELEGDIFAPSAIAFDEQSATPVEMSAEKVKETVQEFKQAAARAKEAGFDVIEIHAAHGYLIHEFLSPLSNHRTDEYGGSPENRYRFLREIIDEVKQVWDGPLFVRVSASDYTDKGLDIADHIGFAKWMKEQGVDLIDCSSGALVHADINVFPGYQVSFAEKIREQADMATGAVGMITDGSMAEEILQNGRADLIFIGRELLRDPFFARTAAKQLNTEIPAPVQYERGW
Conditions | melting temperature, co-solvent: 2-propanol [°C] | melting temperature, co-solvent: dimethyl sulfoxide [°C] | melting temperature, co-solvent: ethanol [°C] | melting temperature, co-solvent: methanol [°C] | melting temperature, co-solvent: n-propanol [°C] | specific initial activity, co-solvent: 2-propanol | specific initial activity, co-solvent: dimethyl sulfoxide | specific initial activity, co-solvent: ethanol | specific initial activity, co-solvent: methanol | specific initial activity, co-solvent: n-propanol
[1], co-solvent concentration (% v/v): 0 | – | – | – | – | – | 0.49 | 0.52 | 0.46 | 0.51 | 0.5
[1], co-solvent concentration (% v/v): 5 | – | – | – | – | – | 0.34 | 0.4 | 0.33 | 0.39 | 0.25
[1], co-solvent concentration (% v/v): 10 | – | – | – | – | – | 0.21 | 0.33 | 0.21 | 0.3 | 0.17
[1], co-solvent concentration (% v/v): 15 | – | – | – | – | – | 0.16 | 0.25 | 0.07 | 0.13 | 0.12
[1], co-solvent concentration (% v/v): 20 | – | – | – | – | – | 0.11 | 0.17 | 0.03 | 0.12 | 0.05
[1], co-solvent concentration (% v/v): 25 | – | – | – | – | – | 0.14 | 0.1 | 0.03 | 0.07 | 0
[1], co-solvent concentration (% v/v): 30 | – | – | – | – | – | 0.06 | 0.05 | 0.02 | 0.05 | 0
[2], co-solvent concentration (% v/v): 0 | 50.7 | 51 | 51 | 51 | 51 | – | – | – | – | –
[2], co-solvent concentration (% v/v): 5 | 40 | 49.3 | 45 | 48.3 | 43.3 | – | – | – | – | –
[2], co-solvent concentration (% v/v): 10 | 36.3 | 48 | 42.3 | 43.3 | 35.3 | – | – | – | – | –
[2], co-solvent concentration (% v/v): 15 | 34 | 46.7 | 38.3 | 40 | 29.7 | – | – | – | – | –
[2], co-solvent concentration (% v/v): 20 | 31.3 | 46 | 35 | 39.3 | 28.3 | – | – | – | – | –
[2], co-solvent concentration (% v/v): 25 | 27.3 | 45 | 33 | 36.7 | 27.7 | – | – | – | – | –
[2], co-solvent concentration (% v/v): 30 | 24.3 | 44 | 31 | 33 | 26.7 | – | – | – | – | –
